{"source": "paper PMC6293271", "about": "“Bactericidal/Permeability-Increasing Protein Is an Enhancer of Bacterial Lipoprotein Recognition” (Frontiers in Immunology, 2018)", "molecules": {"B1": {"name": "rBPI: recombinant human BPI (aa 32-487) with C-terminal FLAG Tag expressed in HEK293T cells (protein)", "chain": "VNPGVVVRISQKGLDYASQQGTAALQKELKRIKIPDYSDSFKIKHLGKGHYSFYSMDIREFQLPSSQISMVPNVGLKFSISNANIKISGKWKAQKRFLKMSGNFDLSIEGMSISADLKLGSNPTSGKPTITCSSCSSHINSVHVHISKSKVGWLIQLFHKKIESALRNKMNSQVCEKVTNSVSSELQPYFQTLPVMTKIDSVAGINYGLVAPPATTAETLDVQMKGEFYSENHHNPPPFAPPVMEFPAAHDRMVYLGLSDYFFNTAGLVYQEAGVLKMTLRDDMIPKESKFRLTTKFFGTFLPEVAKKFPNMKIQIHVSASTPPHLSVQPTGLTFYPAVDVQAFAVLPNSSLASLFLIGMHTTGSMEVSAESNRLVGELKLDRLLLELKHSNIGPFPVELLQDIMNYIVPILVLPRVNEKLQKGFPLPTPARVQLYNVVLQPHQNFLLFGADVVYK", "modifications": "labelled with NT647 (NHS labelling kit) in the MST experiments only; left off: HA signal peptide, N-terminal, state not stated | FLAG, C-terminal, state not stated", "notes": "recombinant human BPI (aa 32-487) with C-terminal FLAG Tag expressed in HEK293T cells"}}, "key": {"[1]": {"system": "PBMCs", "assay": "Stimulation of human PBMCs, cytokine ELISA of supernatants", "assay_type": "cell-based", "conditions": "for TNFα secretion: 18 h", "method": "After informed consent, blood was drawn from healthy male volunteers using heparinized blood collection tubes (Li-Heparin-Gel-Monovette, Sarstedt, Nümbrecht, Germany) and diluted in RPMI 1640 (Biochrom, Berlin, Germany) at a ratio of 1:1.5. The blood was centrifuged in leucosep tubes containing Ficoll® Paque plus (Oxford Immunotec, Abingdon, Great Britian) at 1,000 × g for 10 min. The interphase containing the leukocytes was collected and subsequently washed twice with RPMI 1640. The pellet was resuspended in AIM V® Medium (Thermo Fisher Scientific, Waltham, MA, USA), counted and cultivated in 96-well plates for 4 h (1 × 10^5/100 μl). Then cells were stimulated with the indicated compounds in the presence or absence of BPI. The supernatants were collected after 18 h for determination of cytokine concentration by ELISA according to the manufacturer's instructions (OptEIA^TM Human TNFα ELISA Set and OptEIA^TM Human IL6 ELISA, BD Biosciences, Heidelberg, Germany; DuoSet® ELISA human CXCL8/IL-8, R&D, Minneapolis, MN, USA)."}, "[2]": {"system": "HEK293T cells expressing TLR2 and CD14", "assay": "Stimulation of HEK293T cells transfected with human TLR2 and CD14, IL-8 ELISA", "assay_type": "cell-based", "conditions": "HEK293T expressing TLR2 and CD14, (R)-Pam3CSK4 ± BPI, 24 h", "method": "HEK293T cells were transfected using the calcium phosphate mediated method according to a published protocol ([45]). Transfections were performed using plasmid vectors for human TLR2 and human CD14 (both a kind gift of Carsten Kirschning, University of Duisburg-Essen, Germany) at concentrations of 0.4 and 0.05 μg/ml, respectively. A GFP encoding plasmid (0.4 μg/ml) was used as control. For stimulation, transfected HEK293T cells were cultured at 2 × 10^5 cells/ml in 96-well plates and stimulated with (R)-Pam3CSK4 ± BPI. After 24 h, supernatants were collected and analyzed for secretion of IL-8 by ELISA (DuoSet® ELISA human CXCL8/IL-8, R&D, Minneapolis, MN, USA)."}}}
{"molecule": "B1", "values": [{"measurement": "TNFα secretion", "setting": "[1]; PBMCs stimulated with (R)-FSL-1, increasing rBPI concentration", "result": "gradually enhanced"}, {"measurement": "TNFα secretion", "setting": "[1]; PBMCs stimulated with (R)-Pam3CSK4, increasing rBPI concentration", "result": "gradually enhanced"}, {"measurement": "TNFα, IL-6, and IL-8 secretion", "setting": "[1]; PBMCs stimulated with lysate of S. pneumoniae D39Δcps, seven donors, BPI 500 nM", "result": "remarkable increase"}, {"measurement": "TNFα, IL-6, and IL-8 secretion", "setting": "[1]; PBMCs stimulated with lysates of S. aureus 113, BPI 500 nM", "result": "also increased"}, {"measurement": "secretion of TNFα", "setting": "[1]; PBMCs, BPI incubated with LTA SPΔlgt compared to LTA SPΔlgt alone", "result": "increased secretion of TNFα"}, {"measurement": "enhancement of immune stimulation of bLPs (IL-8)", "setting": "[2]", "result": "not sufficient to enhance"}]}
